In the supplement of paper PMC10126150:
± gives the standard deviation of the averaged measurements.

Tested on: ATP
Assay: switch fluorescence ratio, 500 uM ATP over buffer (Cy3 cluster intensity, sum of 5 cycles each) (fold (ratio)); higher = stronger signal-on switching upon ATP binding; sequences stand for … in TCGTCGGCAGCGTCAGATGTGTATAAGAGACAGTTTTTTTTTTTTTTTTTTTTTTTTT…TC
Conditions: aptamer strand: ATP DNA aptamer (quencher-CACCTGGGGGAGTATTGCGGAGGAAGG + anchor), 100 nM annealed; ATP concentration: 500 uM
How it was run: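 Imaging in selection buffer was followed by imaging after 15 min with 500 uM ATP at 22 °C, for Cy3-labelled switching-strand clusters annealed to 100 nM quencher-labelled ATP aptamer on a modified Illumina MiSeq flow-cell. Five of these buffer/ATP cycles ran, separated by NaOH stripping and re-annealing. The fluorescence ratio per cluster is summed target-cycle over summed buffer-cycle Cy3 intensity, averaged per switch-domain sequence; clusters outside 100-1000 RFU were removed.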
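Also: ATP exposure 15 min at 22 °C before imaging.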

With CGTGTGGTCG the switch fluorescence ratio was 0.9325 ± 0.0038.

For CGTGTTAATG, the switch fluorescence ratio was 0.989 ± 0.037.

In the case of CGTGTTACGG, the switch fluorescence ratio is reported as 0.994 ± 0.046.

In the case of CGTGTTCGGA, the switch fluorescence ratio is reported as 0.977 ± 0.016.

CGTGTTGTTT gave a switch fluorescence ratio of 1.003 ± 0.01.

In the case of CGTGTTTATA, the switch fluorescence ratio is reported as 0.99 ± 0.042.

CGTGTTTGGG gave a switch fluorescence ratio of 0.994 ± 0.022.

In the case of CGTGTTTTAT, the switch fluorescence ratio is reported as 0.998 ± 0.039.

CGTTAAATAA was tested, and the switch fluorescence ratio was 1.004 ± 0.0054.

CGTTAAATTT showed a switch fluorescence ratio of 0.994 ± 0.033.

In the case of CGTTAAGAAA, the switch fluorescence ratio is reported as 0.994 ± 0.016.

With CGTTAAGTTT the switch fluorescence ratio was 0.9804 ± 0.0066.

Work on CGTTAATACT yielded a switch fluorescence ratio of 2.98 ± 0.045.

In the case of CGTTAATCGT, the switch fluorescence ratio is reported as 1.01 ± 0.021.

CGTTAATCTA showed a switch fluorescence ratio of 0.987 ± 0.026.

CGTTACCGGA showed a switch fluorescence ratio of 1.01 ± 0.029.

Work on CGTTACGCGC yielded a switch fluorescence ratio of 1 ± 0.023.

CGTTACGCTT was tested, and the switch fluorescence ratio was 1.05 ± 0.066.

CGTTACGGGA was tested, and the switch fluorescence ratio was 1.02 ± 0.057.

CGTTAGAATA gave a switch fluorescence ratio of 1.017 ± 0.0078.

CGTTAGCTTT gave a switch fluorescence ratio of 1.02 ± 0.026.

CGTTAGTTCT was tested, and the switch fluorescence ratio was 1 ± 0.029.

CGTTATCTAG showed a switch fluorescence ratio of 1.01 ± 0.03.

In the case of CGTTATTTTT, the switch fluorescence ratio is reported as 1.016 ± 0.0089.

With CGTTCAATTA the switch fluorescence ratio was 0.996 ± 0.027.

Sequence CGTTCGATAT has a switch fluorescence ratio of 1.03 ± 0.03.

For CGTTCGGGTT, the switch fluorescence ratio was 0.989 ± 0.044.

CGTTCTAATT showed a switch fluorescence ratio of 1.01 ± 0.024.

CGTTCTGAAT gave a switch fluorescence ratio of 0.9901 ± 0.0086.

CGTTCTTGTC gave a switch fluorescence ratio of 1.05 ± 0.047.

Sequence CGTTGATGTC has a switch fluorescence ratio of 1.01 ± 0.13.

CGTTGATTTG was tested, and the switch fluorescence ratio was 0.9908 ± 0.0057.

CGTTGCGAAA showed a switch fluorescence ratio of 1.02 ± 0.031.

Work on CGTTGCGCCA yielded a switch fluorescence ratio of 1.02 ± 0.013.

With CGTTGCTCGA the switch fluorescence ratio was 0.9992 ± 0.0064.

In the case of CGTTGGAAGA, the switch fluorescence ratio is reported as 1.02 ± 0.015.

With CGTTGGATT the switch fluorescence ratio was 0.986 ± 0.017.

Sequence CGTTGGCAGC has a switch fluorescence ratio of 1.03 ± 0.028.

CGTTGGGGGC was tested, and the switch fluorescence ratio was 0.998 ± 0.087.

CGTTGGGTTG gave a switch fluorescence ratio of 0.987 ± 0.024.

In the case of CGTTGGTGTC, the switch fluorescence ratio is reported as 0.9921 ± 0.0085.

For CGTTGGTTCA, the switch fluorescence ratio was 1 ± 0.023.

For CGTTGGTTTT, the switch fluorescence ratio was 1.04 ± 0.02.

Work on CGTTGTGACT yielded a switch fluorescence ratio of 0.998 ± 0.021.

In the case of CGTTGTTTCT, the switch fluorescence ratio is reported as 0.967 ± 0.024.

With CGTTTAATAT the switch fluorescence ratio was 1 ± 0.033.

Work on CGTTTACGGA yielded a switch fluorescence ratio of 0.998 ± 0.026.

CGTTTAGGAC was tested, and the switch fluorescence ratio was 1.1 ± 0.21.

For CGTTTAGGCT, the switch fluorescence ratio was 1.07 ± 0.14.

CGTTTAGGGG gave a switch fluorescence ratio of 0.9766 ± 0.0063.

CGTTTAGGTG gave a switch fluorescence ratio of 1.02 ± 0.038.

Sequence CGTTTCAAGA has a switch fluorescence ratio of 0.9759 ± 0.0019.

For CGTTTCGTTT, the switch fluorescence ratio was 0.98 ± 0.039.

Work on CGTTTGAACT yielded a switch fluorescence ratio of 1.025 ± 0.0094.

In the case of CGTTTGATGG, the switch fluorescence ratio is reported as 0.9807 ± 0.0047.

For CGTTTGGGCC, the switch fluorescence ratio was 1.01 ± 0.069.

Sequence CGTTTTATCT has a switch fluorescence ratio of 1.03 ± 0.025.

For CGTTTTCAGA, the switch fluorescence ratio was 0.9966 ± 0.0015.

In the case of CGTTTTCTCG, the switch fluorescence ratio is reported as 0.994 ± 0.027.

Work on CGTTTTTAAG yielded a switch fluorescence ratio of 0.982 ± 0.0052.

With CGTTTTTAGG the switch fluorescence ratio was 1.02 ± 0.024.

With CGTTTTTCGG the switch fluorescence ratio was 0.971 ± 0.0087.

For CGTTTTTGGG, the switch fluorescence ratio was 0.985 ± 0.036.

For CGTTTTTTTG, the switch fluorescence ratio was 1.014 ± 0.0018.

Work on CGTTTTTTTT yielded a switch fluorescence ratio of 0.989 ± 0.02.

CTAAAGCGCG gave a switch fluorescence ratio of 1.07 ± 0.034.

With CTAAAGGTTC the switch fluorescence ratio was 1.05 ± 0.05.

CTAAAGTGTG gave a switch fluorescence ratio of 0.9858 ± 0.0098.

CTAAAGTTGG showed a switch fluorescence ratio of 0.995 ± 0.02.

For CTAAATAATA, the switch fluorescence ratio was 0.992 ± 0.027.

Sequence CTAACAGGGG has a switch fluorescence ratio of 1.426 ± 0.0043.

With CTAACGGACT the switch fluorescence ratio was 1.16 ± 0.068.

For CTAAGAGGGA, the switch fluorescence ratio was 0.999 ± 0.025.

CTAAGATAGC showed a switch fluorescence ratio of 1.03 ± 0.041.

With CTAAGGGAGG the switch fluorescence ratio was 0.992 ± 0.017.

CTAAGGGGGA showed a switch fluorescence ratio of 1 ± 0.018.

CTAAGGTCTT showed a switch fluorescence ratio of 1.07 ± 0.11.

Sequence CTAAGTTGGG has a switch fluorescence ratio of 1.1 ± 0.13.

Sequence CTAATAATAT has a switch fluorescence ratio of 1.01 ± 0.025.

CTAATAGTGC gave a switch fluorescence ratio of 1.016 ± 0.0021.

For CTAATGATTG, the switch fluorescence ratio was 0.957 ± 0.027.

With CTAATGGGGA the switch fluorescence ratio was 0.981 ± 0.044.

For CTAATGGTAT, the switch fluorescence ratio was 0.991 ± 0.022.

For CTAATGGTTT, the switch fluorescence ratio was 0.982 ± 0.024.

In the case of CTAATGTGCC, the switch fluorescence ratio is reported as 0.993 ± 0.052.

Sequence CTAATTGCCA has a switch fluorescence ratio of 0.994 ± 0.017.

CTAATTGCGA showed a switch fluorescence ratio of 1 ± 0.016.

CTAATTGGTT gave a switch fluorescence ratio of 0.988 ± 0.015.

CTAATTTAGG showed a switch fluorescence ratio of 1 ± 0.018.

CTACAATGTA showed a switch fluorescence ratio of 1.01 ± 0.021.

With CTACACGCTG the switch fluorescence ratio was 1.01 ± 0.1.

With CTACATGAAA the switch fluorescence ratio was 1.006 ± 0.0034.

Work on CTACGAAGGG yielded a switch fluorescence ratio of 1.04 ± 0.021.

With CTACGTCATT the switch fluorescence ratio was 1.41 ± 0.095.

CTACTATAAT gave a switch fluorescence ratio of 1.04 ± 0.043.

With CTAGAAGCGG the switch fluorescence ratio was 0.983 ± 0.013.

CTAGACAGGG showed a switch fluorescence ratio of 1.028 ± 0.0022.

CTAGACCCGG gave a switch fluorescence ratio of 0.988 ± 0.027.

Sequence CTAGAGGCGA has a switch fluorescence ratio of 1.03 ± 0.026.

CTAGAGTGAG showed a switch fluorescence ratio of 1.02 ± 0.049.
